Measured values reported in US9127040B2, “Regulation of sodium channels by PLUNC proteins” (The University of North Carolina at Chapel Hill, priority 2011, dated 2015).

Target: T1, α and γ ENaC (Rattus norvegicus, UniProt P37089+P37090+P37091)
T1 construct: expressed in transfected cells; host or cells: Xenopus oocytes (cRNA injection; with or without V5-SPLUNC1 and CAP2)
T1 sequence (P37089 1-698): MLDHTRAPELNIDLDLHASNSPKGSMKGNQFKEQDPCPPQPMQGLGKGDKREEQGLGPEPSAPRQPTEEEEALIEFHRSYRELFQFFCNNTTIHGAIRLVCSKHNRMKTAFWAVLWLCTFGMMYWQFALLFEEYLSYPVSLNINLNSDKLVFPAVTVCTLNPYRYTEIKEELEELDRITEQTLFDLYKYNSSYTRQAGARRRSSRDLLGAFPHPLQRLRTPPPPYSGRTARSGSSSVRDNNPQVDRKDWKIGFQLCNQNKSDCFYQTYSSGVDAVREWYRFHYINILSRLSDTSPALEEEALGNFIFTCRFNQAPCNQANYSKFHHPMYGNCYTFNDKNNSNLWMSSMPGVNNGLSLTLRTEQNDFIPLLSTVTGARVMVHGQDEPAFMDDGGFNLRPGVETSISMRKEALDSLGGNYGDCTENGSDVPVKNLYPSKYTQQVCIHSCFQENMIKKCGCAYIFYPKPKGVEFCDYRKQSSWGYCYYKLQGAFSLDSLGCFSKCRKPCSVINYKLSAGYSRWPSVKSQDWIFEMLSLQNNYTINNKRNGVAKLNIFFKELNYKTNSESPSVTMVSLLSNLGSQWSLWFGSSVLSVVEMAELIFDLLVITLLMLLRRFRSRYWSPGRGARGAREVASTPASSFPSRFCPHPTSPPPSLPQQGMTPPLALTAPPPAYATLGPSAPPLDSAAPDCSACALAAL
T1 sequence (P37090 1-638): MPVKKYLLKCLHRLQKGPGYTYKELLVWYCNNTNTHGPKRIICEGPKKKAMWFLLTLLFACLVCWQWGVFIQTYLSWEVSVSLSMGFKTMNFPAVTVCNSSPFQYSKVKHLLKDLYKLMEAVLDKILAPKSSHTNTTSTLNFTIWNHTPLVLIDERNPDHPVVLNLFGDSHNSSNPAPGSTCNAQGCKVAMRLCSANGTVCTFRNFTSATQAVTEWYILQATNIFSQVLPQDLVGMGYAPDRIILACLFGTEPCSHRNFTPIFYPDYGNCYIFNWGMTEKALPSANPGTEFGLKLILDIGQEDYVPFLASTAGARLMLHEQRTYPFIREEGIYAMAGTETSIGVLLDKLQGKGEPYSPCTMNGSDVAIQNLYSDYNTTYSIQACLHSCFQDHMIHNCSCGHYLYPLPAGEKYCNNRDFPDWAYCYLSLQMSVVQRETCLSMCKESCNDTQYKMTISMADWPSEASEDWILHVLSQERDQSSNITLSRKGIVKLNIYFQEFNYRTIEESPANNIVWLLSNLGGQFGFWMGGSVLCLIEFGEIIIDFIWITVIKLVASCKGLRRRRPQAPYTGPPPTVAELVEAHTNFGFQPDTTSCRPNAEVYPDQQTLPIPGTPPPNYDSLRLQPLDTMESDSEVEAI
T1 sequence (P37091 1-650): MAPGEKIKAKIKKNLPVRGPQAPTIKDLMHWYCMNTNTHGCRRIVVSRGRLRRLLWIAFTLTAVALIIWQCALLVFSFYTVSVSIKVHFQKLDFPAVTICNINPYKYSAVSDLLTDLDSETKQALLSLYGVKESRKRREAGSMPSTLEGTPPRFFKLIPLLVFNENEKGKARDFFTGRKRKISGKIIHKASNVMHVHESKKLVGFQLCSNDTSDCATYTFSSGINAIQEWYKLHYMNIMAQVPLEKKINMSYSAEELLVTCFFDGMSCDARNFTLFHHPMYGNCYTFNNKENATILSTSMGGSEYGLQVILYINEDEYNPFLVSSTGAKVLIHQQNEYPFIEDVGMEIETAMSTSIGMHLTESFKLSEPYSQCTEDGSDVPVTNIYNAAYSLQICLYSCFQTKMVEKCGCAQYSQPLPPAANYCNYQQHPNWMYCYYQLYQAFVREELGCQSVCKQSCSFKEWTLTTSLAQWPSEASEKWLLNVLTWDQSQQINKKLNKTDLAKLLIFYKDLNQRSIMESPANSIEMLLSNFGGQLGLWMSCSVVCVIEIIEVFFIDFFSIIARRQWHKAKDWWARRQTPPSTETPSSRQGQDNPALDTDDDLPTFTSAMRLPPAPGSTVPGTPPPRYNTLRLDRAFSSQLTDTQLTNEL
Test: Western blot of ENaC cleavage by CAP2 in Xenopus oocytes
Format: cell-based
Conditions: αβγENaC, CAP2 and SPLUNC1 co-expressed in oocytes
Protocol: Xenopus oocytes were injected with either HA-N-Terminus or V5-C-Terminus (HA-NT/V5-CT) tagged subunits in combination with wild type (WT) untagged rat αβγENaC subunits (0.3 ng cRNA each) with or without V5-tagged SPLUNC1 and CAP2 (1 ng cRNA each). After 24 h, 40 eggs per experimental condition were lysed with buffer containing (in mM): 20 Tris, 50 NaCl, 50 NaF, 10 β-glycerophosphate, 5 Na4P2O7 pyrophosphate, 1 EDTA, pH 7.5 and protease inhibitors (complete, Roche), aprotinin (Sigma). Cell lysates were prepared by passing the eggs through a 27G1/2 needle twice and by centrifugation at 3,600 rpm for 10 minutes at 4° C. […]
Proteolytic cleavage of α and γ subunits is required for ENaC activation (Mueller et al., J. Biol. Chem. 282:33475 (2007); Adebamiro et al., J. Gen. Physiol. 130:611 (2007)) and since CAP2 is highly expressed in human bronchial epithelial cultures (Tarran et al., J. Gen. Physiol. 127:591 (2006)), we tested whether SPLUNC1 could alter α and γ ENaC cleavage by CAP2. Due to the relative scarcity of purified rSPLUNC1, we elected to co-express SPLUNC1 and ENaC rather than use rSPLUNC1 for subsequent oocyte studies since SPLUNC1 is secreted at sufficient quantities from oocytes to inhibit ENaC (FIG. 5). When αβγENaC and CAP2 were co-expressed in oocytes, both full-length ENaC subunits and cleaved α and γ fragments were detected with a V5 antibody (FIG. 7A, 7B). […]

B1: SPLUNC1: human SPLUNC1 (SEQ ID NO:1), 256 amino acid secreted PLUNC family protein; rSPLUNC1 is the purified V5/6His-tagged recombinant form (protein, listed as Homo sapiens)
chain: MFQTGGLIVFYGLLAQTMAQFGGLPVPLDQTLPLNVNPALPLSPTGLAGSLTNALSNGLLSGGLLGILENLPLLDILKPGGGTSGGLLGGLLGKVTSVIPGLNNIIDIKVTDPQLLELGLVQSPDGHRLYVTIPLGIKLQVNTPLVGASLLRLAVKLDITAEILAVRDKQERIHLVLGDCTHSPGSLQISLLDGLGPLPIQGLLDSLTGILNKVLPELVQGNVCPLVNEVLRGLDITLVHDIVNMLIHGLQFVIKV
modifications: V5/6His tag in recombinant form
notes: rSPLUNC1 is the purified V5/6His-tagged recombinant form
With B1 the “α and γ ENaC cleavage by CAP2” value was “only full-length α and γ ENaC subunits could be observed”.
